In article PMC4426065 (Structure (London, England : 1993), 2015):

B2: Atg17 (K. lactis) (natural protein, Kluyveromyces lactis, UniProt Q6CS99 1-423, looked up)
chain: MSDAATTIPSDEIDKLWNKARNQLVEAQVECEESLKILSKVRTEMDSSQKSRFKLKFILNCLVNQVEFFKNIMLEKCISTELIDNEWSKLVLVEIVNDVSYWQNEITTKMKILQGTKYDLTDDHSSLSDFICMDHVDILQQKIDEIPIIKQQVTNIRQHYKSIKDRIENQLVAVKLKKLRTYFDSHFSRDSKNNLFKLLESDYVTELNEFENELADFLRSITDHFDKCTILKEQQIPLPDLKELFQIVKKDDTQLENIRELVFETGLEVKAFSKKVNETISEIMDKIGGFHLLASKIVTELEKCEEYLSIFQKIANLVFVYKESCIKKIEQVQQLCEFYDKFKLGYKNLLRERDRRKATALQMEKILKECQEKLQALSDADLDQRQQFLLENGDYLPENIWPGYIDDMESMYSFEYSIHNVPN

What was measured:
Assay in all cases: SAXS
[1] = biological target: Atg1 minipentamer: Atg1EAT-Atg13_(350-525)-Atg17-Atg31-Atg29_(1-85) (K. lactis) (Kluyveromyces lactis) (UniProt Q6CSX2)
[2] = biological target: Atg17-Atg31-Atg29_(1-85) subcomplex from Kluyveromyces lactis (dimeric double crescent) (Kluyveromyces lactis) (UniProt Q6CS99)
[3] = biological target: B2
[4] = biological target: the molecule itself
[5] = biological target: the molecule itself; remark: listed apart in the source

## Atg1 minipentamer: Atg1EAT-Atg13_(350-525)-Atg17-Atg31-Atg29_(1-85) (K. lactis) (from UniProt Q6CSX2 562-831; Q6CWK2 350-525; Q6CS99 1-423; Q6CTU8 1-85) (complex)
[1]
  stoichiometry N: 4

## Atg17-Atg31-Atg29_(1-85) subcomplex from Kluyveromyces lactis (dimeric double crescent) (from UniProt Q6CS99 1-423; Q6CTU8 1-85)
[2]
  stoichiometry N: 4

B1: Atg13 residues 350-525 (K. lactis) (domain or fragment, Kluyveromyces lactis, UniProt Q6CWK2 350-525, looked up)
chain: AALKVQRGSAGSTIVNGDVPPELSSVGSGSKYSSSFGRIRRHSSIRRSESFDRTAKPRKSTENPPEDLLEFVKLLEDKKELNMKPNTILPQQDISNSLMRFQSMKSNNDALSDNLSMSMSIDQPNVRFGSNSHSPIPSFSPNYGSIPSRLSQGSRNNSNAELITSRKSSLDRHKHN
[3]
  binding result: binds

## B2
[4]
  binding result: binds

B3: Atg1 EAT domain (K. lactis Atg1 residues 562-831) (domain or fragment, Kluyveromyces lactis, UniProt Q6CSX2 562-831, looked up)
chain: DSNITPAVESLAAKAFVMYSFAEMKFSQILPTPPSSTDYDPLSDKRLSNGSCAIEDEEDLDQGRPPSNQTLTSATTKISSATNVDTQIPAPELKKLCTESLLLYLKALTILAASMKLTSKWWYENESKNCTLKLNILVQWIRDRFNECLDKAEFLRLKLHAINTSPNSQWSDDDPVIFVEKLIYDRALDISRNAARMEMESGNYNTCELAYATSLWMLEILLDENFQFNEVYDDEYASNITSLDESDKEMIKKYISSIANRLKALKSKMV
[5]
  stoichiometry N: 2
